The results in this text go back to publication PMC2112199.

This assay concerns the target Acanthamoeba actin (Acanthamoeba).

Regarding Acanthamoeba actin (natural protein), the kon is 7.8e+06 M⁻¹ s⁻¹.
